Measured values from IntAct's records for PubMed 33758649.

B1: Protein PALS1 (Homo sapiens), Q8N3R9 (parent)
chain: MTTSHMNGHVTEESDSEVKNVDLASPEEHQKHREMAVDCPGDLGTRMMPIRRSAQLERIRQQQEDMRRRREEEGKKQELDLNSSMRLKKLAQIPPKTGIDNPMFDTEEGIVLESPHYAVKILEIEDLFSSLKHIQHTLVDSQSQEDISLLLQLVQNKDFQNAFKIHNAITVHMNKASPPFPLISNAQDLAQEVQTVLKPVHHKEGQELTALLNTPHIQALLLAHDKVAEQEMQLEPITDERVYESIGQYGGETVKIVRIEKARDIPLGATVRNEMDSVIISRIVKGGAAEKSGLLHEGDEVLEINGIEIRGKDVNEVFDLLSDMHGTLTFVLIPSQQIKPPPAKETVIHVKAHFDYDPSDDPYVPCRELGLSFQKGDILHVISQEDPNWWQAYREGDEDNQPLAGLVPGKSFQQQREAMKQTIEEDKEPEKSGKLWCAKKNKKKRKKVLYNANKNDDYDNEEILTYEEMSLYHQPANRKRPIILIGPQNCGQNELRQRLMNKEKDRFASAVPHTTRSRRDQEVAGRDYHFVSRQAFEADIAAGKFIEHGEFEKNLYGTSIDSVRQVINSGKICLLSLRTQSLKTLRNSDLKPYIIFIAPPSQERLRALLAKEGKNPKPEELREIIEKTREMEQNNGHYFDTAIVNSDLDKAYQELLRLINKLDTEPQWVPSTWLR

Variants of: B1
Details: with vemp_sars2 E
F318W was tested, and the “effect of a mutation on the interaction” value was “increasing interaction strength”.
